The text below walks through data of US20120093811A1 (published 2012).

Positions count from the first letter of the chain named.

Broadly, the Kd is the equilibrium constant for the complex coming apart. As a reminder, the koff is the first-order rate constant of dissociation. In general, kon refers to the rate constant with which the complex forms.

In assay [1] the target is T1, Source 1 VEGF-D, mature dimeric recombinant human VEGF-D (CSIRO) (human, UniProt O43915 89-205).
T1 construct: Whole entry named; also called Source 1 VEGF-D dimer; VEGF-D dimer
T1 sequence: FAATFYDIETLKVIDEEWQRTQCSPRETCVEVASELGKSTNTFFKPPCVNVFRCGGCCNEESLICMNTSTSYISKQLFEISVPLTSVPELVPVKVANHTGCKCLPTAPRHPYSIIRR
The assay is described as follows: SPR Protocol A: IgG captured by anti-human Fc, VEGF-D dimer as analyte.

Assay [2] has as its target T1, Source 1 VEGF-D, mature dimeric …. The assay is described as follows: SPR Protocol A, KD against that of Ig-1A.
Assay [3] addresses T2, Source 2 VEGF-D, purified recombinant human VEGF-D monomer (R&D Systems, Catalog Number 622-VD/CF) (human, UniProt O43915 93-201).
T2 sequence: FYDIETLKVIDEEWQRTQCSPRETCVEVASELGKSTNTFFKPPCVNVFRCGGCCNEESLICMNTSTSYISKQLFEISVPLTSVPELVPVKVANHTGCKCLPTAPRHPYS
The assay is described as follows: cell-based or functional assay.

The target of assay [4] is T1, Source 1 VEGF-D, mature dimeric …. Description: cell-based or functional assay.
The target is the same in assay [5]. Description: SPR Protocol B, KD against that of Ig-1A. On the procedure:
(§1) Protocol B: In the second assay format, Protocol B, the orientation of the IgGs and the VEGF-D antigen was reversed relative to Protocol A. The Source 1 VEGF-D dimer was immobilized directly on the chip surface by amine coupling and the murine anti-VEGF-D monoclonal antibody, Ig-1A or IgG variants flowed over this surface as analytes at concentrations of 4 nM, 1.33 nM, and 0.44 nM. This protocol allowed avidity effects to be controlled by reducing the density of dimeric VEGF-D immobilized on the chip and in effect reduce the bivalent binding properties of the system being analyzed.
(§2) All four flow cells on a CM5 chip were activated for 7 min at 25° C. using a mixture of NHS.EDC. Flow cell one was used as an unmodified (activated and blocked) reference against flow cells 2-4. Source 1 VEGF-D dimer was diluted to 1-3 μg/ml into 10 mM sodium acetate, pH 4, and injected over three surfaces for different lengths of time to achieve low ligand densities of 10, 15 and 20 RU to minimize avidity effects of the IgG. All surfaces were blocked for 7 min with ethanolamine (1M, pH 8.2) and pre-conditioned using five 10 s injections of 100 mM H₃PO₄; 1M NaCl. Immobilization steps were carried out at a flow rate of 30 μl/min using HBS-N running buffer.
(§3) All IgG binding experiments were performed at 25° C. using HBS-EP+ running buffer. Analytes (murine reference anti-VEGF-D monoclonal antibody and humanized variants) were injected for 200 s at a flow rate of 70 μl/min and dissociation monitored for 250 s. The antigen surfaces were regenerated with a 10 s pulse of 100 mM H₃PO₄; 1M NaCl. Analyte concentrations used for murine and humanized variants were 4 nM, 1.33 nM, and 0.44 nM. Data was processed using the reference surface and double referencing from blank injections. Binding constants for the IgG/antigen interactions were determined from the three antigen surfaces globally fitted to a 1:1 interaction model. Refractive index parameter was constant (RI=0).

The target is the same in assay [6]. Description: SPR Protocol B: VEGF-D dimer amine-coupled, IgG as analyte. The procedure:
as §1, §2, §3

Assay [7] shares this target. The assay is described as follows: SPR Protocol B, KD against that of the murine antibody. The procedure: as §1
All four flow cells on a CM5 chip were activated for 7 min at 25° C. using a mixture of NHS.EDC. Flow cell one was used as an unmodified (activated and blocked) reference against flow cells 2-4. […]
All IgG binding experiments were performed at 25° C. using HBS-EP+ running buffer. Analytes (murine reference anti-VEGF-D monoclonal antibody and humanized variants) were injected for 200 s at a flow rate of 70 μl/min and dissociation monitored for 250 s. […] Binding constants for the IgG/antigen interactions were determined from the three antigen surfaces globally fitted to a 1:1 interaction model. […]

For assay [8] the target is unchanged. The assay is described as follows: SPR Protocol A, KD against that of the murine antibody.
Assay [9] concerns the target T2, Source 2 VEGF-D, purified recombinant …. Description: SPR, IgG captured by anti-human IgG (Fc), Source 2 VEGF-D as analyte.
Assay [10] concerns the target T1, Source 1 VEGF-D, mature dimeric …. Description: SPR; row labelled Protocol A (IgG captured by anti-human Fc, VEGF-D dimer as analyte); Protocol A line of Table 6. On the procedure: Protocol A: The first assay format, Protocol A, used an assay system where IgGs were captured on a biosensor chip surface using an anti-human IgG (Fc) antibody and the Source 1 VEGF-D dimer run over the chip as the analyte in solution. This ensured that all IgG molecules were presented to the antigen in an active orientation.
The SPR protocol was slightly modified to compensate for the dimeric nature of the VEGF-D. Ig-1A or IgG variants were analyzed using an anti-human capture kit as described for Anti-human IgG (Fc) capture above, except that 1000 RU of the IgG or IgG variant was captured on the anti-human chip surface. […] The kinetics generated using this approach are accurate within the experimental parameters set. This standard assay protocol is best suited to studying 1:1 interactions and thus, may not be ideal for analyzing binding between the IgG variants and the VEGF-D dimer. In light of this, Protocol B was also used.

Assay [11] deals with T2, Source 2 VEGF-D, purified recombinant …. Description: SPR, IgG captured by anti-human IgG (Fc), Source 2 VEGF-D monomer as analyte. (In general: Surface plasmon resonance follows binding to a sensor surface in real time, without labels.)
The target of assay [12] is T1, Source 1 VEGF-D, mature dimeric …. The assay is described as follows: SPR, labelled Protocol B in this table.
Assay [13] shares this target. Description: SPR, labelled Protocol A in this table; Protocol B by paragraph 399 and Table 7A, though printed as Protocol A.

B1: humanized IgG antibody derived from clone HU75 (antibody, V domains shown)
VH: QVQLVQSGAEVKQPGASVKVSCKASGYTFTGYNMYWVRQAPGQGLEWMGYIDPYNGDTTYNQKFKGRVTMTTDTSTSTAYMKLRSLRSDDTAVYYCARTSYYGGMDYWGRGTLVTVAS
VL: DIVMTQTPLSGPVTLGQPASISCRSSQSLVHSNGNTYLHWLQQRPGQPPRLLIYKVSNRFSGVPDRFSGSGAGTDFTLKISRVEAEDVGVYYCSQSTHVPRTFGRGTKLEIKR
notes: IgG
As for B1, the dissociation constant Kd in [1] is 0.127 nM; in [6], 0.4 nM. In addition, the koff in assay [1] amounted to 5.8e-05 s⁻¹; in [6], 0.0019 s⁻¹. The results for the kon in assay [1] and in assay [6] were 460000 M⁻¹ s⁻¹ and 4.8e+06 M⁻¹ s⁻¹, respectively. Further, the “Fold-improvement with respect to Ig-1A” value stood at 5.5 fold in assay [2] and 4.4 fold in assay [5]. In addition, the results for the “rank in the VEGFR-3-Ba/F3 bioassay” value in assay [3] and in [4] were 5 rank and 7 rank, respectively. The “fold improvement over the original murine anti-VEGF-D monoclonal antibody” value in assay [7] worked out at 11.5 fold; in assay [8] it was 23.6 fold.

B2: Ig-1A, humanized IgG reformatted from scFv 1A (antibody, V domains shown)
VH: B1 VH with K82E
VL: B1 VL with G11S, R105Q
notes: IgG made in mammalian cells; also called humanized Ig-1A
Turning to B2, the Kd is 0.696 nM in assay [1]; 16.1 nM in assay [9]; 9.2 nM in assay [11]; 0.7 nM in assay [12]; 1.8 nM in assay [6]; 0.7 nM in assay [13]. Also, the koff in [1] turned out to be 0.00049 s⁻¹; in assay [9], 0.00901 s⁻¹; in assay [10], 0.00059 s⁻¹; in assay [11] it was 0.00678 s⁻¹; in assay [6], 0.0013 s⁻¹. The kon was 710000 M⁻¹ s⁻¹ in assay [1]; 494000 M⁻¹ s⁻¹ in assay [9]; 680000 M⁻¹ s⁻¹ in assay [10]; 730000 M⁻¹ s⁻¹ in assay [11]; 720000 M⁻¹ s⁻¹ in [6].
